The supplement of paper PMC10065799, “High-throughput profiling of sequence recognition by tyrosine kinases and SH2 domains using bacterial peptide display” (eLife, 2023)

Legend:
Grb2 SH2 = Grb2 SH2 (UniProt P62993); experiment: SH2 binding enrichment of the phosphorylated peptide, bacterial display (enrichment ratio); higher = better substrate or ligand; peptides without Tyr show the background
c-Src SH2 = experiment: as above
SHP2-C SH2 = experiment: as above
EPHB1 = EPHB1 (UniProt P54762); experiment: phosphorylation enrichment, bacterial display (enrichment ratio); higher = better substrate or ligand; peptides without Tyr show the background
c-Abl (mouse) = experiment: as above
FGFR1 = FGFR1 (UniProt P11362); experiment: as above
Jak2 = Jak2 (UniProt O60674); experiment: as above
Fer (mouse) = experiment: as above
Fyn = Fyn (UniProt P06241); experiment: as above
Hck = Hck (UniProt P08631); experiment: as above
EPHB2 = EPHB2 (UniProt P29323); experiment: as above
AncSZ = experiment: as above
c-Src = experiment: as above
FGFR3 = FGFR3 (UniProt P22607); experiment: as above
MERTK = MERTK (UniProt Q12866); experiment: as above
Fes = Fes (UniProt P07332); experiment: as above
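Throughout, for SH2 binding enrichment of the phosphorylated peptide, bacterial display: peptide library displayed on the E. coli surface as eCPX fusions, selected cells deep-sequenced, score is each peptide's frequency after selection divided by its frequency in the input.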
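Throughout, for phosphorylation enrichment, bacterial display: 11-residue human phosphosite peptides and single-mutation variants displayed on the E. coli surface, counted by deep sequencing, each peptide's frequency after selection divided by its frequency in the unselected input library; frequency after pTyr selection over input frequency; kinase dosed for 20-30% of maximal phosphorylation in three min.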

FGFR1, sequence (P11362 whole entry, looked up): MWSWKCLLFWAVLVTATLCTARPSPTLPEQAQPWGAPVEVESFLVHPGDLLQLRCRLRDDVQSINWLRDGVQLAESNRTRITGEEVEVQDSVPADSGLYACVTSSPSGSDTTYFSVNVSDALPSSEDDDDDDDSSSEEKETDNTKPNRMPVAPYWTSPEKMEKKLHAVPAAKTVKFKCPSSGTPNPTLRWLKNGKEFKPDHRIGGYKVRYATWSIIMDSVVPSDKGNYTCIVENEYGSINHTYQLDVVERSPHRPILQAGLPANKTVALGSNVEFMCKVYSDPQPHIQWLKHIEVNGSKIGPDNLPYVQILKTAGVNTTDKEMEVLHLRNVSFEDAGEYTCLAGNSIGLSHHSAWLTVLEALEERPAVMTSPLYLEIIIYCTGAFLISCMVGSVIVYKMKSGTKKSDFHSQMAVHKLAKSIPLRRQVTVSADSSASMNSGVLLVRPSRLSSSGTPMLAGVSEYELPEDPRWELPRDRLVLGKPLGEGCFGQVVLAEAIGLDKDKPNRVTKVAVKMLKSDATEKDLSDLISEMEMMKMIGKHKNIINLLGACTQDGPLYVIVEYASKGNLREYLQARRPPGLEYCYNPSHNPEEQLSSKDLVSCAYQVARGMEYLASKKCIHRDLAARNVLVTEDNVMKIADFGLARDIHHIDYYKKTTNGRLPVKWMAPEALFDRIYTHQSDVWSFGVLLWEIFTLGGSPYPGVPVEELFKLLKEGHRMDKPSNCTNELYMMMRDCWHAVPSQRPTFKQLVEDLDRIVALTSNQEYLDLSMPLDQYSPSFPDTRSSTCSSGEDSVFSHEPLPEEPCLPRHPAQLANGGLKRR
FGFR3, sequence (P22607 whole entry, looked up): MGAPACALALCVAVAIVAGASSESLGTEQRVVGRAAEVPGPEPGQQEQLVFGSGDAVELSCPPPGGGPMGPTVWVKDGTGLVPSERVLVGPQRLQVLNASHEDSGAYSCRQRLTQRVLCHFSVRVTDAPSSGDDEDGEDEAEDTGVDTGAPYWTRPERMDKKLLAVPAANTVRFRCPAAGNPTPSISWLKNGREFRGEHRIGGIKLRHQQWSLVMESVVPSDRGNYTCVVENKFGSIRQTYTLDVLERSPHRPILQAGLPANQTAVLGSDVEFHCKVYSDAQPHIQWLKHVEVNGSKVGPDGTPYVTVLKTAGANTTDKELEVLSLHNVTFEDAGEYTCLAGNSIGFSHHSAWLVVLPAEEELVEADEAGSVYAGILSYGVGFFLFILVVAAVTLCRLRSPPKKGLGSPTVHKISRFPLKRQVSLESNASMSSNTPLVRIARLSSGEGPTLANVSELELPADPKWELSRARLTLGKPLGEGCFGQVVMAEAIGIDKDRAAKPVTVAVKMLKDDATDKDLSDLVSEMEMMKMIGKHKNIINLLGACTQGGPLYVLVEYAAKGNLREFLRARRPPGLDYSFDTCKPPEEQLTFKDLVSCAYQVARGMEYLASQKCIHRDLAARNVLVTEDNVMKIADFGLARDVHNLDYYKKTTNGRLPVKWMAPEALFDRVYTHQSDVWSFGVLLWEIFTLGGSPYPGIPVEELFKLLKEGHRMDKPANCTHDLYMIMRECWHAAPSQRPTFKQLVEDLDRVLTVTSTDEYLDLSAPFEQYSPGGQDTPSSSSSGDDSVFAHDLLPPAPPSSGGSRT
EPHB1, sequence (P54762 whole entry, looked up): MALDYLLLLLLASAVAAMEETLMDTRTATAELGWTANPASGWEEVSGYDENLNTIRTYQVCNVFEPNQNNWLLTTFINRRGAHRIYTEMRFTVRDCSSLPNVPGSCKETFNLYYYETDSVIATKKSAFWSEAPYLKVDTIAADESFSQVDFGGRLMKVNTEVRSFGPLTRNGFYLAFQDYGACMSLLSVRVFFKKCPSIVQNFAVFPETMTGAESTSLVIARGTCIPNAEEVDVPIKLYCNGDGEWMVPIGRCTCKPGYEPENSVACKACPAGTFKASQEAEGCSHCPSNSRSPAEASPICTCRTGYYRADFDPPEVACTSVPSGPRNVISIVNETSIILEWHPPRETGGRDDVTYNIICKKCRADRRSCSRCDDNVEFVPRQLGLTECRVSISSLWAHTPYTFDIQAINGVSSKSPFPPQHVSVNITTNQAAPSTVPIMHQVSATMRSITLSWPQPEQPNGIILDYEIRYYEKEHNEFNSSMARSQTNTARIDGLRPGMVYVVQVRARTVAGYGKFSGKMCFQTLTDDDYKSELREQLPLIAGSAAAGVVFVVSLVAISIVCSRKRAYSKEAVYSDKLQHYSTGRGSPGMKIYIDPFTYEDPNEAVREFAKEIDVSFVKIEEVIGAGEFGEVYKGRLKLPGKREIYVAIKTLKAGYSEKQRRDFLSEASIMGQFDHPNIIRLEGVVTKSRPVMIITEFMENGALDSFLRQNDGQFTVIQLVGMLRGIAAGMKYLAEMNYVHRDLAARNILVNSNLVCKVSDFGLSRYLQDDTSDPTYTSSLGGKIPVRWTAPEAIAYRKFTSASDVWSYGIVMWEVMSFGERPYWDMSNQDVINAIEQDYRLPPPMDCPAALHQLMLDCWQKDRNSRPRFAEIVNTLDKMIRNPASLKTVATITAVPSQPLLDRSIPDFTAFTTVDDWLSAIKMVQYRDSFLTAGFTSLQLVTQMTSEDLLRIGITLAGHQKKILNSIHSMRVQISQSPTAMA
Jak2, sequence (O60674 whole entry, looked up): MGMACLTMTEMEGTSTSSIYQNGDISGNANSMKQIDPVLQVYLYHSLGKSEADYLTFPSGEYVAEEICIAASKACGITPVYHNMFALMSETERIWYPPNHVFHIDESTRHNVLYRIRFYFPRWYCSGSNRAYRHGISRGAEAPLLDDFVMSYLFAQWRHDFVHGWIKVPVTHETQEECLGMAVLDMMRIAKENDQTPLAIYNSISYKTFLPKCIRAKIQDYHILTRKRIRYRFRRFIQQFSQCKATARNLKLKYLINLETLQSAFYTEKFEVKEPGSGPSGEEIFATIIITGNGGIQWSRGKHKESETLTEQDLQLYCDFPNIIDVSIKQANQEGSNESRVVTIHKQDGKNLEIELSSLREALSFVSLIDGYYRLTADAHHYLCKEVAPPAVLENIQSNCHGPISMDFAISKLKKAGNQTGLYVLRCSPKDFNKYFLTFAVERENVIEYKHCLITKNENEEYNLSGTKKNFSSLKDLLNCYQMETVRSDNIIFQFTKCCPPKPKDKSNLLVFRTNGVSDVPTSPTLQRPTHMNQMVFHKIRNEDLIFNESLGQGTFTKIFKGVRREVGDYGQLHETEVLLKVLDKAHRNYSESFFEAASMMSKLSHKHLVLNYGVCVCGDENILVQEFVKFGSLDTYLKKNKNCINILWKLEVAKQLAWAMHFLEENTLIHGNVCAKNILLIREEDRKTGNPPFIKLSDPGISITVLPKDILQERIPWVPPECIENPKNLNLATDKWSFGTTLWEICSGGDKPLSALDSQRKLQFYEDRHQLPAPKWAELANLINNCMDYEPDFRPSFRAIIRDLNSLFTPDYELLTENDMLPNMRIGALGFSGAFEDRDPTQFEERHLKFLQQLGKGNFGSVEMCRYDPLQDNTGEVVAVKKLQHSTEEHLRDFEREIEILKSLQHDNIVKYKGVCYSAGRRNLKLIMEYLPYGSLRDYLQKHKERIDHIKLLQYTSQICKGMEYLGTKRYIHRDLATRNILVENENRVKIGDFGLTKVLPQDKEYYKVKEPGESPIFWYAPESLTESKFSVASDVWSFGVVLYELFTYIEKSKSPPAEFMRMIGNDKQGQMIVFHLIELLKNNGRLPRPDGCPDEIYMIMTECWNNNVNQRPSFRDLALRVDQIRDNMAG
MERTK, sequence (Q12866 whole entry, looked up): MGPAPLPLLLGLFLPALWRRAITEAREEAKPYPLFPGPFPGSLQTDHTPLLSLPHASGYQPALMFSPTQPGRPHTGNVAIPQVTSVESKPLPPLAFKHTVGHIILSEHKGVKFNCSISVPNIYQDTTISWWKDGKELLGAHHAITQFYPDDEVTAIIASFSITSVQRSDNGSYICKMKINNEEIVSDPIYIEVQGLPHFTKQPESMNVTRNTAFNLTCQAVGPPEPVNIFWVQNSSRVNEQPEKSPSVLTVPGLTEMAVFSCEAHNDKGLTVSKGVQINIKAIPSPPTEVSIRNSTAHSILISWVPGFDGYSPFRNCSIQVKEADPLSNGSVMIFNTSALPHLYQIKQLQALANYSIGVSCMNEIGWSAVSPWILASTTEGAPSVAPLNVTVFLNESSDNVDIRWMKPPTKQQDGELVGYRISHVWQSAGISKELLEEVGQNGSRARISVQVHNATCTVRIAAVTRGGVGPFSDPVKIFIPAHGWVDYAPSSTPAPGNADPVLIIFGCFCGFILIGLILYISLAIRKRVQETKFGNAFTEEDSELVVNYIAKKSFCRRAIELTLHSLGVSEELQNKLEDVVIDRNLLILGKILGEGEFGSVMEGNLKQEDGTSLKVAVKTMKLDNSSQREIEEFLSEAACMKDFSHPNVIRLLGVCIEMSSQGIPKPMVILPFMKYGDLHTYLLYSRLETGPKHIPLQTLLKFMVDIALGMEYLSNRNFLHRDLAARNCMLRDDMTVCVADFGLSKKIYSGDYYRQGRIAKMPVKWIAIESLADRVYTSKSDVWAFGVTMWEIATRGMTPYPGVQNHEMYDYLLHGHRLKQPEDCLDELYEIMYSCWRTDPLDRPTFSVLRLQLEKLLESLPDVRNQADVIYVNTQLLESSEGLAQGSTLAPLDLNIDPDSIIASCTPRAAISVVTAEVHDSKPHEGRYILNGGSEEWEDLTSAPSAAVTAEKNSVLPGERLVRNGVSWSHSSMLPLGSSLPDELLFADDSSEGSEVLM

| Sequence | SH2 binding enrichment (Grb2 SH2) | SH2 binding enrichment (c-Src SH2) | SH2 binding enrichment (SHP2-C SH2) | phosphorylation enrichment (EPHB1) | phosphorylation enrichment (c-Abl (mouse)) | phosphorylation enrichment (FGFR1) | phosphorylation enrichment (Jak2) | phosphorylation enrichment (Fer (mouse)) | phosphorylation enrichment (Fyn) | phosphorylation enrichment (Hck) | phosphorylation enrichment (EPHB2) | phosphorylation enrichment (AncSZ) | phosphorylation enrichment (c-Src) | phosphorylation enrichment (FGFR3) | phosphorylation enrichment (MERTK) | phosphorylation enrichment (Fes) |
| --- | --- | --- | --- | --- | --- | --- | --- | --- | --- | --- | --- | --- | --- | --- | --- | --- |
| FPPDGYSRHCE [CTNND1_Y213_Y217C_YF] | 0.985 | 0.617 | 0.706 | 0.565 | 0.584 | 0.477 | 0.741 | 0.485 | 0.431 | 0.473 | 0.542 | 0.784 | 0.376 | 0.661 | 0.383 | 0.904 |
| AIIEEYLHLND [EIF4G1_Y1253] | 0.763 | 0.446 | 0.855 | 0.564 | 0.585 | 0.564 | 0.959 | 0.487 | 0.493 | 0.492 | 0.498 | 1.02 | 0.411 | 0.736 | 0.376 | 1.19 |
| TESNNYIFKTL [FAM83B_Y637_YF] | 0.879 | 0.492 | 1.2 | 0.604 | 0.762 | 0.645 | 0.926 | 0.597 | 0.528 | 0.643 | 1.06 | 1.26 | 0.642 | 0.82 | 0.664 | 1.12 |
| QEGPEYWDQQT [HLA-A_Y83_E87Q] | 0.664 | 0.421 | 0.612 | 1.31 | 1.78 | 1.01 | 2.33 | 0.884 | 0.741 | 0.58 | 0.967 | 2.09 | 0.937 | 1.21 | 0.649 | 2.21 |
| KGIDRYNPENL [EIF3K_Y21] | 0.861 | 0.524 | 0.785 | 0.349 | 0.456 | 0.493 | 0.449 | 0.372 | 0.42 | 0.384 | 0.446 | 0.583 | 0.358 | 0.564 | 0.414 | 0.736 |
| MGCVNYGAYIN [GLB1_Y485_R482C] | 1.44 | 0.569 | 0.606 | 0.793 | 1.39 | 0.469 | 1.56 | 0.571 | 0.578 | 0.572 | 0.83 | 1.32 | 1.08 | 0.851 | 0.483 | 1.37 |
| LPSKDYAEVGR [HP_Y272] | 0.766 | 2.68 | 0.717 | 1.15 | 0.726 | 0.918 | 0.684 | 0.801 | 0.735 | 0.951 | 1.24 | 0.654 | 0.709 | 0.895 | 0.801 | 2.22 |
| ESFRLYPPVPQ [CYP4B1_Y377] | 0.829 | 0.464 | 0.713 | 0.416 | 0.553 | 0.342 | 0.536 | 0.378 | 0.457 | 0.415 | 0.477 | 0.62 | 0.391 | 0.491 | 0.404 | 0.704 |
| EEEPVYKAEPE [HCLS1_Y360_E361K] | 0.797 | 0.569 | 0.509 | 0.573 | 0.826 | 0.597 | 1.36 | 0.576 | 0.675 | 0.595 | 0.525 | 1.06 | 0.717 | 0.891 | 0.518 | 1.49 |
| HNVPIYEGFGL [ACTA1_Y168_A172G_YF] | 0.85 | 0.513 | 0.823 | 24.2 | 7.97 | 0.507 | 0.575 | 18.8 | 14.9 | 13.5 | 27.6 | 1.35 | 8.62 | 0.519 | 12.1 | 4.3 |
| TIQSMYGCDVG [HLA-B_Y123_L119I] | 0.909 | 0.581 | 1.01 | 0.502 | 0.68 | 0.579 | 0.794 | 0.48 | 0.427 | 0.502 | 0.48 | 0.886 | 0.517 | 0.602 | 0.559 | 1.04 |
| RTLIRYANLSN [BEST1_Y131_G135S] | 6.11 | 1.59 | 8.49 | 0.733 | 0.654 | 0.801 | 0.792 | 0.566 | 0.79 | 0.675 | 0.71 | 0.774 | 0.65 | 0.757 | 0.631 | 1.02 |
| REEKNYKHKET [BCLAF1_Y459_L461H] | 0.93 | 0.624 | 0.46 | 0.422 | 0.917 | 0.635 | 0.571 | 0.647 | 0.436 | 0.53 | 0.55 | 0.829 | 0.741 | 0.431 | 0.688 | 1.45 |
| NYNPNYCFAGK [ALK_Y1096_D1091N] | 0.868 | 0.55 | 0.878 | 3.98 | 0.803 | 0.563 | 0.856 | 0.597 | 0.57 | 0.433 | 1.27 | 1.26 | 0.564 | 0.642 | 1.1 | 0.879 |
| WQQQSYLYSGI [CTNNB1_Y30_D32Y] | 0.972 | 1.37 | 0.687 | 3.97 | 0.851 | 1.07 | 1.52 | 5.61 | 7.05 | 7.73 | 5.03 | 1.16 | 5.93 | 1.03 | 7.49 | 1.48 |
| IMAFFYMCDRA [CASD1_Y382_YF] | 0.819 | 0.641 | 0.825 | 0.938 | 1.09 | 0.652 | 1.64 | 0.677 | 0.57 | 0.545 | 0.648 | 1.48 | 0.57 | 1.12 | 0.544 | 1.63 |
| AKKKMYSLKTK [AGXT_Y231_R233L] | 1.2 | 1.54 | 1.51 | 0.317 | 0.773 | 0.389 | 0.795 | 0.373 | 0.365 | 0.44 | 0.463 | 0.404 | 0.434 | 0.853 | 0.435 | 0.791 |
| RLGLQYSQGLV [EIF2B4_Y214] | 0.955 | 0.452 | 0.553 | 0.676 | 1.16 | 0.853 | 1.19 | 0.654 | 0.732 | 0.588 | 0.725 | 0.876 | 0.683 | 0.851 | 0.365 | 1.31 |

The next lines start with results.

| SH2 binding enrichment (Grb2 SH2) | SH2 binding enrichment (c-Src SH2) | SH2 binding enrichment (SHP2-C SH2) | Sequence | phosphorylation enrichment (EPHB1) | phosphorylation enrichment (c-Abl (mouse)) | phosphorylation enrichment (FGFR1) | phosphorylation enrichment (Jak2) | phosphorylation enrichment (Fer (mouse)) | phosphorylation enrichment (Fyn) | phosphorylation enrichment (Hck) | phosphorylation enrichment (EPHB2) | phosphorylation enrichment (AncSZ) | phosphorylation enrichment (c-Src) | phosphorylation enrichment (FGFR3) | phosphorylation enrichment (MERTK) | phosphorylation enrichment (Fes) |
| --- | --- | --- | --- | --- | --- | --- | --- | --- | --- | --- | --- | --- | --- | --- | --- | --- |
| 0.953 | 8.63 | 1.12 | WFQTKYEELQI [KRT6B_Y360_YF] | 0.446 | 0.651 | 0.428 | 0.987 | 0.46 | 0.38 | 0.417 | 0.488 | 0.839 | 0.398 | 0.633 | 0.403 | 0.981 |
| 0.731 | 1.28 | 0.712 | SVIVPYEPPEV [TP53_Y220_V217I] | 0.622 | 0.831 | 0.6 | 1.08 | 0.631 | 0.654 | 0.517 | 0.618 | 1.1 | 0.445 | 0.81 | 0.447 | 1.23 |
| 0.748 | 0.593 | 0.584 | AYGNLYGSRKQ [YIPF7_Y59] | 0.324 | 0.442 | 0.484 | 0.516 | 0.367 | 1.38 | 6.04 | 0.3 | 0.525 | 2.08 | 0.481 | 0.502 | 0.462 |
| 0.732 | 0.547 | 0.888 | AGLEDYDRLRP [RAC3_Y64_Q61L] | 0.505 | 0.657 | 0.836 | 0.931 | 0.62 | 0.544 | 0.894 | 0.791 | 1.13 | 0.485 | 0.744 | 0.402 | 0.933 |
| 0.841 | 0.557 | 0.752 | NTCNRYCCDEI [ITGB3_Y660_R662C] | 0.694 | 1.03 | 0.595 | 1.43 | 0.612 | 0.577 | 0.574 | 0.594 | 1.44 | 0.541 | 0.88 | 0.538 | 1.49 |
| 0.776 | 0.437 | 0.553 | TSESSYFKSLN [NGEF_Y288_A286S_YF] | 0.433 | 0.636 | 0.41 | 0.67 | 0.436 | 0.395 | 0.455 | 0.37 | 0.766 | 0.411 | 0.705 | 0.362 | 0.91 |
| 1.02 | 0.817 | 0.649 | DSYWSYCNAVA [SLC20A2_Y436_S434W] | 2.64 | 1.45 | 4.16 | 1.27 | 0.644 | 5.46 | 3.31 | 1.93 | 1.43 | 4.44 | 2.42 | 0.952 | 1.12 |
| 0.948 | 0.688 | 0.727 | FSVDGYDSSVR [KCNQ1_Y461] | 0.519 | 0.648 | 0.427 | 0.672 | 0.36 | 0.461 | 0.393 | 0.513 | 0.693 | 0.37 | 0.53 | 0.311 | 0.773 |
| 0.809 | 13.5 | 0.991 | EKSREYDRLFE [PIK3R1_Y463_YF] | 0.457 | 0.784 | 0.434 | 0.935 | 0.437 | 0.448 | 0.522 | 0.602 | 0.929 | 0.5 | 0.577 | 0.453 | 0.993 |
| 0.916 | 0.486 | 0.556 | RSSKMYPKTRS [LPL_Y329_L330P] | 0.359 | 1.2 | 0.547 | 1.43 | 0.342 | 0.502 | 0.509 | 0.151 | 0.601 | 0.614 | 0.624 | 0.562 | 0.675 |
| 1.02 | 0.406 | 0.795 | LPKDLYLISQM [LARP4_Y141_S137P] | 0.784 | 1.2 | 1.15 | 1.46 | 0.646 | 0.69 | 0.891 | 0.757 | 2.15 | 0.788 | 1.55 | 0.785 | 2.13 |
| 0.876 | 0.813 | 0.814 | DLNATYRTIQG [U2SURP_Y634] | 0.578 | 0.641 | 0.583 | 0.609 | 0.518 | 0.646 | 0.688 | 0.751 | 0.631 | 0.674 | 0.6 | 0.473 | 0.846 |
| 0.729 | 0.428 | 0.54 | SQPASYQRRLL [PPIG_Y320] | 0.313 | 0.301 | 0.472 | 0.35 | 0.286 | 0.53 | 0.253 | 0.337 | 0.394 | 0.365 | 0.396 | 0.316 | 0.451 |
| 0.824 | 0.4 | 0.593 | AASTDYYKRGD [PDHA1_Y242] | 0.51 | 0.615 | 0.592 | 0.811 | 0.515 | 0.597 | 0.568 | 0.45 | 0.83 | 0.523 | 0.586 | 0.511 | 0.811 |
| 1.53 | 1.15 | 1.41 | GMRHGYGVRQS [JPH2_Y141] | 0.38 | 0.668 | 0.355 | 0.457 | 0.328 | 0.369 | 0.36 | 0.373 | 0.451 | 0.326 | 0.405 | 0.384 | 0.556 |
